{"source": "paper PMC2172336", "about": "(The Journal of Cell Biology, 2004)", "binders": {"B1": {"name": "GST-Ste5_(241-336) (domain or fragment, S. cerevisiae, UniProt P32917 241-336, looked up)", "chain": "PENDELKDILISDFLIHKIPDSELSITPQSRFPPYSPLLPPFGLSYTPVERQTIYSQAPSLNPNLILAAPPKERNQIPQKKSNYTFLHSPLGHRRI"}, "B2": {"name": "Kss1 (wild type), in vitro translated, 35S-labelled (enzyme, S. cerevisiae, UniProt P14681 1-368, looked up)", "chain": "MARTITFDIPSQYKLVDLIGEGAYGTVCSAIHKPSGIKVAIKKIQPFSKKLFVTRTIREIKLLRYFHEHENIISILDKVRPVSIDKLNAVYLVEELMETDLQKVINNQNSGFSTLSDDHVQYFTYQILRALKSIHSAQVIHRDIKPSNLLLNSNCDLKVCDFGLARCLASSSDSRETLVGFMTEYVATRWYRAPEIMLTFQEYTTAMDIWSCGCILAEMVSGKPLFPGRDYHHQLWLILEVLGTPSFEDFNQIKSKRAKEYIANLPMRPPLPWETVWSKTDLNPDMIDLLDKMLQFNPDKRISAAEALRHPYLAMYHDPSDEPEYPPLNLDDEFWKLDNKIMRPEEEEEVPIEMLKDMLYDELMKTME", "modifications": "[35S]methionine label"}, "B3": {"name": "Fus3 (wild type), in vitro translated, 35S-labelled (enzyme, S. cerevisiae, UniProt P16892 1-353, looked up)", "chain": "MPKRIVYNISSDFQLKSLLGEGAYGVVCSATHKPTGEIVAIKKIEPFDKPLFALRTLREIKILKHFKHENIITIFNIQRPDSFENFNEVYIIQELMQTDLHRVISTQMLSDDHIQYFIYQTLRAVKVLHGSNVIHRDLKPSNLLINSNCDLKVCDFGLARIIDESAADNSEPTGQQSGMTEYVATRWYRAPEVMLTSAKYSRAMDVWSCGCILAELFLRRPIFPGRDYRHQLLLIFGIIGTPHSDNDLRCIESPRAREYIKSLPMYPAAPLEKMFPRVNPKGIDLLQRMLVFDPAKRITAKEALEHPYLQTYHDPNDEPEGEPIPPSFFEFDHYKEALTTKDLKKLIWNEIFS", "modifications": "[35S]methionine label"}, "B4": {"name": "GST-Dig2_(98-114) (domain or fragment, S. cerevisiae, UniProt Q03373 98-114, looked up)", "chain": "SLKRKRVPPALNFSDIQ"}, "B5": {"name": "Fus3-7m2 (D317N), in vitro translated, 35S-labelled (enzyme, S. cerevisiae, UniProt P16892 1-353, looked up)", "chain": "MPKRIVYNISSDFQLKSLLGEGAYGVVCSATHKPTGEIVAIKKIEPFDKPLFALRTLREIKILKHFKHENIITIFNIQRPDSFENFNEVYIIQELMQTDLHRVISTQMLSDDHIQYFIYQTLRAVKVLHGSNVIHRDLKPSNLLINSNCDLKVCDFGLARIIDESAADNSEPTGQQSGMTEYVATRWYRAPEVMLTSAKYSRAMDVWSCGCILAELFLRRPIFPGRDYRHQLLLIFGIIGTPHSDNDLRCIESPRAREYIKSLPMYPAAPLEKMFPRVNPKGIDLLQRMLVFDPAKRITAKEALEHPYLQTYHDPNNEPEGEPIPPSFFEFDHYKEALTTKDLKKLIWNEIFS", "modifications": "[35S]methionine label"}, "B6": {"name": "Ste12-GAD (Ste12 fused to the Gal4 transcriptional activation domain) (natural protein, S. cerevisiae, UniProt P13574 1-688, looked up)", "chain": "MKVQITNSRTEEILKVQANNENDEVSKATPGEVEESLRLIGDLKFFLATAPVNWQENQIIRRYYLNSGQGFVSCVFWNNLYYITGTDIVKCCLYRMQKFGREVVQKKKFEEGIFSDLRNLKCGIDATLEQPKSEFLSFLFRNMCLKTQKKQKVFFWFSVAHDKLFADALERDLKRESLNQPSTTKPVNEPALSFSYDSSSDKPLYDQLLQHLDSRRPSSTTKSDNSPPKLESENFKDNELVTVTNQPLLGVGLMDDDAPESPSQINDFIPQKLIIEPNTLELNGLTEETPHDLPKNTAKGRDEEDFPLDYFPVSVEYPTEENAFDPFPPQAFTPAAPSMPISYDNVNERDSMPVNSLLNRYPYQLSVAPTFPVPPSSSRQHFMTNRDFYSSNNNKEKLVSPSDPTSYMKYDEPVMDFDESRPNENCTNAKSHNSGQQTKQHQLYSNNFQQSYPNGMVPGYYPKMPYNPMGGDPLLDQAFYGADDFFFPPEGCDNNMLYPQTATSWNVLPPQAMQPAPTYVGRPYTPNYRSTPGSAMFPYMQSSNSMQWNTAVSPYSSRAPSTTAKNYPPSTFYSQNINQYPRRRTVGMKSSQGNVPTGNKQSVGKSAKISKPLHIKTSAYQKQYKINLETKARPSAGDEDSAHPDKNKEISMPTPDSNTLVVQSEEGGAHSLEVDTNRRSDKNLPDAT"}, "B7": {"name": "GST-Ste7_(1-98) (domain or fragment, S. cerevisiae, UniProt P06784 1-98, looked up)", "chain": "MFQRKTLQRRNLKGLNLNLHPDVGNNGQLQEKTETHQGQSRIEGHVMSNINAIQNNSNLFLRRGIKKKLTLDAFGDDQAISKPNTVVIQQPQNEPVLV"}, "B8": {"name": "full-length Dig1-GAD (natural protein, S. cerevisiae, UniProt Q03063 1-452, looked up)", "chain": "MAVSARLRTTAEDTSIAKSTQDPIGDTEISVANAKGSSDSNIKNSPGGNSVGQESELEHVPEEDDSGDKEADHEDSETATAKKRKAQPLKNPKKSLKRGRVPAPLNLSDSNTNTHGGNIKDGNLASSNSAHFPPVANQNVKSAPAQVTQHSKFQPRVQYLGKASSRQSIQVNNSSNSYGKPHMPSAGIMSAMNPYMPMNRYIMSPYYNPYGIPPPHMLNKPIMTPYVSYPYPMGPRTSIPYAMQGGNARPYEENEYSASNYRNKRVNDSYDSPLSGTASTGKTRRSEEGSRNSSVGSSANAGPTQQRADLRPADMIPAEEYHFERDALLSANTKARSASTSTSTSTSTNRDRSSWHEAEPNKDEEEGTDLAIEDGAVPTPTFTTFQRTSQPQQQSPSLLQGEIRLSSHIFAFEFPLSSSNVDKKMFMSICNKVWNESKELTKKSSSHHRTGK"}, "B9": {"name": "full-length Dig2-GAD (natural protein, S. cerevisiae, UniProt Q03373 1-323, looked up)", "chain": "MNKEEQEDPQQEQISTVQENDPRNLQQLGMLLVSPGLDEDRLSEKMISKIKKSRDIEKNQKLLISRLSQKEEDHSGKPPTITTSPAEKTVPFKSLNHSLKRKRVPPALNFSDIQASSHLHGSKSAPPNITRFPQHKNSLRVRYMGRMAPTNQDYHPSVANSYMTATYPYPYTGLPPVPCYPYSSTPTQTHAYEGYYSPMYPGPLYNNGIIPADYHAKRKKLAGRSPHLEDLTSRKRTFVSKHHNGDPIISKTDEDIECSVTKNSLSEGASLNDDADDDNDKERIIIGEISLYDDVFKFEVRDDKNDYMKACETIWTEWHNLKK"}, "B10": {"name": "GST-Ste12_(298-473) (domain or fragment, S. cerevisiae, UniProt P13574 298-473, looked up)", "chain": "AKGRDEEDFPLDYFPVSVEYPTEENAFDPFPPQAFTPAAPSMPISYDNVNERDSMPVNSLLNRYPYQLSVAPTFPVPPSSSRQHFMTNRDFYSSNNNKEKLVSPSDPTSYMKYDEPVMDFDESRPNENCTNAKSHNSGQQTKQHQLYSNNFQQSYPNGMVPGYYPKMPYNPMGGDP"}}, "key": {"[1]": {"target": "B2", "experiment": "pull-down"}, "[2]": {"target": "B3", "experiment": "pull-down"}, "GST-Dig1_(213-452)": {"target": "T1, GST-Dig1_(213-452) (S. cerevisiae, UniProt Q03063 213-452)", "T1 sequence (looked up)": "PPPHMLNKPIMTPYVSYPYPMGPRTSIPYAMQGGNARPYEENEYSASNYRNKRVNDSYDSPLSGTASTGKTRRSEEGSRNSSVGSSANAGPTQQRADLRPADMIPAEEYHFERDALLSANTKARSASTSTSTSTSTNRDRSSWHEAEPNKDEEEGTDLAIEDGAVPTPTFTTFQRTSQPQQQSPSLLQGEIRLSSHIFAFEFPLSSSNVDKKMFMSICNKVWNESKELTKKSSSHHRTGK", "experiment": "pull-down"}, "GST-Ste5_(241-336)": {"target": "B1", "experiment": "pull-down"}, "GST-Ste7_(1-98)": {"target": "B7", "experiment": "pull-down"}, "GST-Dig2_(98-114)": {"target": "B4", "experiment": "pull-down"}, "GST-Dig1_(93-111)": {"target": "T2, GST-Dig1_(93-111) (S. cerevisiae, UniProt Q03063 93-111)", "T2 chain (looked up)": "KKSLKRGRVPAPLNLSDSN", "experiment": "pull-down"}, "[3]": {"target": "B3", "experiment": "pull-down", "remark": "listed apart in the source"}, "[4]": {"target": "T3, Kss1-GBD (wild-type Kss1 fused to the Gal4 DNA-binding domain) (S. cerevisiae, UniProt P14681 1-368)", "T3 sequence (looked up)": "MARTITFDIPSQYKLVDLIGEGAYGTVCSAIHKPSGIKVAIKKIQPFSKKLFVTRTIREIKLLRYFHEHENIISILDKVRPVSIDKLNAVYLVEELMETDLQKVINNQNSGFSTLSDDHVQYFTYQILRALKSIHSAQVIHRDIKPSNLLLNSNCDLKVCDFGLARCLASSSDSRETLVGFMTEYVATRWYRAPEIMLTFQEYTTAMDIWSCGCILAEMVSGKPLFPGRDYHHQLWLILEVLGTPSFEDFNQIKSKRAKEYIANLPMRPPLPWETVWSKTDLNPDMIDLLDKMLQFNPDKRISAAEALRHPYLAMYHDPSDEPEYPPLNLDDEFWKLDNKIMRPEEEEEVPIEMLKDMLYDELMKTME", "experiment": "two-hybrid"}, "[5]": {"target": "B2", "experiment": "pull-down", "remark": "listed apart in the source"}}, "note": "Read-outs that look alike come from different tables or passages of the source.", "data": [{"binder": "B1", "values": [{"measurement": "Kd", "setting": "[1]", "result": "~6500", "unit": "nM"}, {"measurement": "Kd", "setting": "[2]", "result": "~1000", "unit": "nM"}]}, {"binder": "B2", "values": [{"measurement": "percent of input bound", "setting": "GST-Dig1_(213-452)", "result": "1.3 % of input"}, {"measurement": "percent of input bound", "setting": "GST-Ste5_(241-336)", "result": "3.7 % of input"}, {"measurement": "percent of input bound", "setting": "GST-Ste7_(1-98)", "result": "9 % of input"}, {"measurement": "fold higher affinity than for the Dig1 D-site", "setting": "GST-Dig2_(98-114)", "result": "~3", "unit": "fold"}]}, {"binder": "B3", "values": [{"measurement": "percent of input bound", "setting": "GST-Dig1_(213-452)", "result": "0.6 % of input"}, {"measurement": "percent of input bound", "setting": "GST-Ste5_(241-336)", "result": "12.6 % of input"}, {"measurement": "percent of input bound", "setting": "GST-Ste7_(1-98)", "result": "14 % of input"}, {"measurement": "fold higher affinity than Kss1 for the same D-site", "setting": "GST-Dig1_(93-111)", "result": "~17", "unit": "fold"}, {"measurement": "fold higher affinity than Kss1 for the same D-site", "setting": "GST-Dig2_(98-114)", "result": "~17", "unit": "fold"}, {"measurement": "fold higher affinity than for the Dig1 D-site", "setting": "GST-Dig2_(98-114)", "result": "~3", "unit": "fold"}]}, {"binder": "B4", "values": [{"measurement": "Kd", "setting": "[3]", "result": "~1000", "unit": "nM"}]}, {"binder": "B5", "values": [{"measurement": "percent of wild-type binding", "setting": "GST-Ste7_(1-98)", "result": "< 1 % of wild-type"}]}, {"binder": "B6", "values": [{"measurement": "fold above background (two-hybrid reporter)", "setting": "[4]", "result": 4, "unit": "fold"}]}, {"binder": "B7", "values": [{"measurement": "Kd", "setting": "[1]", "result": "~100", "unit": "nM"}, {"measurement": "Kd", "setting": "[2]", "result": "~100", "unit": "nM"}]}, {"binder": "B8", "values": [{"measurement": "fold above background (two-hybrid reporter)", "setting": "[4]", "result": 3, "unit": "fold"}]}, {"binder": "B9", "values": [{"measurement": "fold above background (two-hybrid reporter)", "setting": "[4]", "result": 23, "unit": "fold"}]}, {"binder": "B10", "values": [{"measurement": "Kd", "setting": "[5]", "result": "~2000", "unit": "nM"}]}]}
